From patent US20240084017A1 (ASCENDO BIOTECHNOLOGY, published 2024)

Legend:
[1] = target: T1, human Mac-1 (integrin αMβ2, CD11b/CD18) (human, UniProt P11215 17-1152; P05107 23-769); assay: flow cytometry, HEK293/Mac-1 cells, PBS/MnCl2 (Mn2+), 10 µg/ml of this antibody; binding of reporter mAb m24 read
Experimental: (§1) The HEK293/Mac-1 cells (clone1-4) were counted and washed twice with staining buffer (PBS containing 1% FBS, and 0.1% sodium azide). Cells were adjusted at a concentration of 1×10⁵ cells/ml in staining buffer and treated with/without 0.25 mM MnCl₂ (Sigma). Cells were treated with anti-Mac-1 antibodies and fluorescent conjugated anti-human IgG4 antibodies and incubated for 15 mins. After washing with the staining buffer, the cells were analyzed by flow cytometry. In some examples, these cells were treated with the antibodies (ICRF44, KIM127, m24, or isotype control) in the presence or absence 10 μg/ml anti-Mac-1 antibodies. The cells were then incubated at 37° C. for 30 min. After washing with the staining buffer, the cells were analyzed by flow cytometry.
(§2) TABLE IV The anti-Mac-1 antibody can serve as an antagonist to reduce the conformational change of Mac-1. HEK293/Mac-1 cells (clone1-4) were incubated with 10 μg/ml anti-Mac-1 antibodies under the PBS/MnCl₂ (Mn²⁺) condition. Binding of KIM127 or m24 was detected using flow cytometry.

[2] = target: T1, human Mac-1 (integrin αMβ2, CD11b/CD18); assay: flow cytometry, HEK293/Mac-1 cells, PBS (Mock), 10 µg/ml of this antibody; binding of reporter mAb KIM127 read
Experimental: as §1
(§3) TABLE III The anti-Mac-1 antibodies can serve as agonist to enhance the conformational change of Mac-1. HEK293/Mac-1 cells (clone1-4) were incubated with 10 μg/ml anti-Mac-1 antibodies under the PBS (Mock) condition. Binding of KIM127 or m24 was detected using flow cytometry.

[3] = target: T1, human Mac-1 (integrin αMβ2, CD11b/CD18); assay: flow cytometry, HEK293/Mac-1 cells; MFI in PBS over MFI in PBS/MnCl2
Experimental: as §1
(§4) TABLE II The anti-Mac-1 antibodies selectively bind to different statuses of human Mac-1. HEK293/Mac-1 cells (clone1-4) were incubated in PBS (Mock), or PBS/MnCl₂ (Mn²⁺). Binding of isotype control IgG, the CD11b specific mAb (ICRF44), the CD11b activation-sensing mAb (CBRM1/5), or the screened anti-Mac-1 antibody was detected using flow cytometry.

[4] = target: T1, human Mac-1 (integrin αMβ2, CD11b/CD18); assay: flow cytometry, HEK293/Mac-1 cells (clone 1-4), PBS/MnCl2 (Mn2+)
Experimental: as §1, §4

[5] = target: T1, human Mac-1 (integrin αMβ2, CD11b/CD18); assay: flow cytometry, HEK293/Mac-1 cells, PBS (Mock), 10 µg/ml of this antibody; binding of reporter mAb m24 read
Experimental: as §1, §3

[6] = target: T1, human Mac-1 (integrin αMβ2, CD11b/CD18); assay: flow cytometry, HEK293/Mac-1 cells, PBS/MnCl2 (Mn2+), 10 µg/ml of this antibody; binding of reporter mAb KIM127 read
Experimental: as §1, §2

[7] = target: T1, human Mac-1 (integrin αMβ2, CD11b/CD18); assay: flow cytometry, HEK293/Mac-1 cells (clone 1-4), PBS (Mock)
Experimental: as §1, §4

| Binder | m24 (Expression relative to IgG4) [1] | KIM127 (Expression relative to IgG4) [2] | Mock/Mn^2+ Ratio [3] | Mn^2+ MFI [4] | m24 (Expression relative to IgG4) [5] | KIM127 (Expression relative to IgG4) [6] | Mock MFI [7] |
| --- | --- | --- | --- | --- | --- | --- | --- |
| anti-Mac-1 antibody clone 28D06 (antibody, human IgG4, V domains shown) VH: QVKLQQSGPELVKPGASVKISCKASGYSFTDYNMNWVKQSNGKSLEWIGEINPNYGTTRYNQKFKGKATLTVDQSSSTAYMQLNSLTSEDSAVYYCARPSIYYDYDDAMDYWGQGTTVTVSS VL: DIELTQSPAIMSASPGEKVTMTCSASSSVNYMYWYQQKPGSSPRLLIYDTSNLASGVPVRFSGSGSGTSYSLTISRMEAEDAATYYCQQWITYPPTLTFGAGTKLEIK | 0.62 relative to IgG4 | 0.99 relative to IgG4 | 1.69 | 30600 MFI | 0.65 relative to IgG4 | 0.69 relative to IgG4 | 51800 MFI |
| anti-Mac-1 antibody clone 24G09 (antibody, human IgG4, V domains shown) VH: EVQLVESGGGLVQPGGSLRLSCAASGFTFSDYAIGWVRQAPGKGLEWVSTIYWSGSNAYYADSVKGRFTISRDNSKNTLYLQMNSLRAEDTAVYYCARLFTLGYHGFDVWGQGTLVTVSS VL: DIQMTQSPSSLSASVGDRVTITCRASQSINTYLNWYQQKPGKAPKLLIYDASNLQSGVPSRFSGSGSGTDFTLTISSLQPEDFATYYCQQYDDLPFTFGQGTKVEIK | 1 relative to IgG4 | 1.01 relative to IgG4 | 1.1 | 26900 MFI | 0.72 relative to IgG4 | 0.89 relative to IgG4 | 29500 MFI |
| anti-Mac-1 antibody clone 24F09 (antibody, human IgG4, V domains shown, also called 24F9) VH: EVQLVESGGGLVQPGGSLRLSCAASGFTFSSAWMSWVRQAPGKGLEWVSTIYWSGSEINYADSVKGRFTISRDNSKNTLYLQMNSLRAEDTAVYYCARSFASGESAMDVWGQGTLVTVSS VL: DIQMTQSPSSLSASVGDRVTITCRASQSISNYLAWYQQKPGKAPKLLIYDASNLQSGVPSRFSGSGSGTDFTLTISSLQPEDFATYYCQQYYSSPPTFGQGTKVEIK | 4.01 relative to IgG4 | 2.05 relative to IgG4 | 1.17 | 33900 MFI | 19.1 relative to IgG4 | 1.71 relative to IgG4 | 39800 MFI |
| anti-Mac-1 antibody clone 24F08 (antibody, human IgG4, V domains shown) VH: EVQLVESGGGLVQPGGSLRLSCAASGFTFSSYWMSWVRQAPGKGLEWVSIINYSGREADYADSVKGRFTISRDNSKNTLYLQMNSLRAEDTAVYYCARDGSYVGQAHEAFDIWGQGTLVTVSS VL: DIQMTQSPSSLSASVGDRVTITCRASQSISKYLAWYQQKPGKAPKLLIYGTSNLQSGVPSRFSGSGSGTDFTLTISSLQPEDFATYYCQQSRSWPLTFGQGTKVEIK | 4.01 relative to IgG4 | 2.17 relative to IgG4 | 1.19 | 42100 MFI | 21.2 relative to IgG4 | 1.73 relative to IgG4 | 50000 MFI |
| anti-Mac-1 antibody clone H4L2 (antibody, human IgG4, V domains shown) VH: QVQLVQSGAEVKKPGASVKVSCKASGYTFTNYWINWVRQAPGQRLEWMGNIYPSDTYINHNQKFKDRVTITRDTSASTAYMELSSLRSEDTAVYYCARSAYANYFDYWGQGTLVTVSS VL: EIVMTQSPATLSVSPGERATLSCRASQNIGTSIHWYQQKPGQAPRLLIYYASESISGIPARFSGSGSGTEFTLTISSLQSEDFAVYYCQQSDSWPTLTFGQGTKLEIK | 0.23 relative to IgG4 | 1.11 relative to IgG4 | 0.91 | 45700 MFI | 0.44 relative to IgG4 | 0.63 relative to IgG4 | 41600 MFI |
| anti-Mac-1 antibody clone 28A12 (antibody, human IgG4, V domains shown) VH: QVKLQESGPELVKPGASVKISCKASGYSFTDYNMNWVKQSNGKSLEWIGEINPGYGTSRYNQKFKDKATLTVDQSSSTAYMQLNSLTSEDSAVYYCARADVDYGDTMDYWGQGTTVTVSS VL: DIELTQSPAIMSASPGEKVTMTCSASSSVSDMHWYQQKSGNSPKRWIYDTSKLASGVPVRFSGSGSGTSYSLTISSMEAEDAATYYCQQWSSNPPTFGAGTKLELK | 1.07 relative to IgG4 | 1.02 relative to IgG4 | 1.48 | 37300 MFI | 0.88 relative to IgG4 | 0.87 relative to IgG4 | 55200 MFI |
| anti-Mac-1 antibody clone 24G05 (antibody, human IgG4, V domains shown) VH: EVQLVESGGGLVQPGGSLRLSCAASGFTFTSYWMTWVRQAPGKGLEWVSTIVGGGGEADYADSVKGRFTISRDNSKNTLYLQMNSLRAEDTAVYYCARDYVADNHGAMDYWGQGTLVTVSS VL: DIQMTQSPSSLSASVGDRVTITCRASQGLSSYLNWYQQKPGKAPKLLIYGMSTLQSGVPSRFSGSGSGTDFTLTISSLQPEDFATYYCMQYYHWPYTFGQGTKVEIK | 3.85 relative to IgG4 | 2.22 relative to IgG4 | 1.25 | 44800 MFI | 25 relative to IgG4 | 1.64 relative to IgG4 | 55900 MFI |
| anti-Mac-1 antibody clone DF4-25 (antibody, human IgG4, V domains shown) VH: EVQLVESGGGLVQPGGSLRLSCAASGFTFKDYWLSWVRQAPGKGLEWVSIINYGGSETYYADSVKGRFTISRDNSKNTLYLQMNSLRAEDTAVYYCARTQTSYVMDYWGQGTLVTVSS VL: DIQMTQSPSSLSASVGDRVTITCRASQSVRSGLNWYQQKPGKAPKLLIYAASSLQSGVPRRFSGSGSGTDFTLTISSLQPEDFATYYCMQSHSWPLTFGQGTKVEIK | 4.34 relative to IgG4 | 2.23 relative to IgG4 | 1.17 | 30500 MFI | 24 relative to IgG4 | 1.75 relative to IgG4 | 35700 MFI |
| anti-Mac-1 antibody clone 27E12 (antibody, human IgG4, V domains shown) VH: QVQLQQSGTVLARPGASVKMSCKASGYTFTSYWMHWVKQRPGQGLEWIGAIYPGNSDTSYNQKFKGKAKLTAVTSASTAYMELSSLTNEDSAVYYCTRGGGSYEFAYWGQGTTVTVSS VL: DIELTQSPAIMSASPGEKVTMTCSVSSSVSYMYWYQQKPGSSPRLLIYDTSNLASGVPARFSGSGSGTSYSLTISSMEAEDAATYYCQQWSSNPFTFGSGTKLEIK | 0.85 relative to IgG4 | 1 relative to IgG4 | 1.12 | 50800 MFI | 0.64 relative to IgG4 | 0.71 relative to IgG4 | 56800 MFI |
| anti-Mac-1 antibody clone 28E07-HH (antibody, human IgG4, V domains shown) VH: QVQLVQSGAEVKKPGASVKVSCKASGYSFTDYNMNWVRQAPGQGLEWMGEINPGYGTSRYNQKFKDRVTMTRDTSISTAYMELSRLRSDDTAVYYCARADVDYGDVMDYWGQGTLVTVSS VL: EIVLTQSPATLSLSPGERATLSCSASSSVSYMHWYQQKPGQAPRLLIYDTSKLASGIPARFSGSGSGTDFTLTISSLEPEDFAVYYCQQWSSNPPTFGQGTKLEIK | 0.75 relative to IgG4 | 0.9 relative to IgG4 | 1.01 | 1.02e+06 MFI | 0.83 relative to IgG4 | 0.87 relative to IgG4 | 1.03e+06 MFI |
